Data: patent US20170306033A1 (Amgen, published 2017)
Changes are numbered by the printed parent chain.

T1: human PAC1 receptor (human, UniProt P41586 21-468)
T1 sequence: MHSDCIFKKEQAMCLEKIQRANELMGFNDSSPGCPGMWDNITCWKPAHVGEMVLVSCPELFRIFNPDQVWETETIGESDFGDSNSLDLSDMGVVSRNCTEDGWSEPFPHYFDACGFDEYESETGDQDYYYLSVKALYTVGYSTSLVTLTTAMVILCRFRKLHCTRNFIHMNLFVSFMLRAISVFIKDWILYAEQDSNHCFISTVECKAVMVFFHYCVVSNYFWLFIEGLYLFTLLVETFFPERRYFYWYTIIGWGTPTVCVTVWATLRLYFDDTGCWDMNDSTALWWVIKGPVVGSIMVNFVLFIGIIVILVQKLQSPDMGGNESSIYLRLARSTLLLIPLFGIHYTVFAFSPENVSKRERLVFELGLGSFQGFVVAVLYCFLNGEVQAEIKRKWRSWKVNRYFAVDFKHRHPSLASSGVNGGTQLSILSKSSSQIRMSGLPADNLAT

B1: iPS:327700 (bispecific antibody, human IgG1, kappa, lambda, N297G)
light 1: not shown
heavy 1: not shown
light 2: QSVLTQPPSVSAAPGQKVTISCSGSSSNIGNNYVSWYQQLPGTAPKLLIYDNNKRPSGIPDRFSGSKSGTSTTLGITGLQTGDEADYYCGTWDSRLSAVVFGGGTKLTVLGQPKANPTVTLFPPSSEELQANKATLVCLISDFYPGAVTVAWKADGSPVKAGVETTKPSKQSNNKYAAKSYLSLTPEQWKSHRSYSCQVTHEGSTVEKTVAPTECS
heavy 2: QVQLVESGGGVVQPGRSLRLSCAASGFTFSSFGMHWVRQAPGKGLEWVAVISFDGSIKYSVDSVKGRFTISRDNSKNTLFLQMNSLRAEDTAVYYCARDRLNYYESSGYYHYKYYGMAVWGQGTTVTVSSASTKGPSVFPLAPSSKSTSGGTAALGCLVKDYFPEPVTVSWNSGALTSGVHTFPAVLQSSGLYSLESVVTVPSSSLGTQTYICNVNHKPSNTKVDKKVEPKSCDKTHTCPPCPAPELLGGPSVFLFPPKPKDTLMISRTPEVTCVVVDVSHEDPEVKFNWYVDGVEVHNAKTKPCEEQYGSTYRCVSVLTVLHQDWLNGKEYKCKVSNKALPAPIEKTISKAKGQPREPQVYTLPPSRKKMTKNQVSLTCLVKGFYPSDIAVEWESNGQPENNYKTTPPVLKSDGSFFLYSKLTVDKSRWQQGNVFSCSVMHEALHNHYTQKSLSLSPGK
B2: iPS:327714 (bispecific antibody, human IgG1, kappa, lambda, N297G)
light 1: EIVLTQSPATLSLSPGERATLSCRASQSVGRSLHWYQQKPGQAPRLLIKYASQSLSGIPARFSGSGSGTDFTLTISSLEPEDFAVYYCHQSSRLPFTFGPGTKVDIKRTVAAPSVFIFPPSDEQLKSGTASVVCLLNNFYPREAKVQWKVDNALQSGNSQESVTEQDSKDSTYSLESTLTLSKADYEKHKVYACEVTHQGLSSPVTKSFNRGEC
heavy 1: not shown
light 2: B1 light 2 with T72A
heavy 2: B1 heavy 2 with E105D
B3: iPS:327729 (bispecific antibody, human IgG1, kappa, lambda, N297G)
light 1: DIQLTQSPSFLSASVGDRVTITCRASQSIGRSLHWYQQKPGKAPKLLIKYASQSLSGVPSRFSGSGSGTEFTLTISSLQPEDFATYYCHQSSRLPFTFGPGTKVDIKRTVAAPSVFIFPPSDEQLKSGTASVVCLLNNFYPREAKVQWKVDNALQSGNSQESVTEQDSKDSTYSLESTLTLSKADYEKHKVYACEVTHQGLSSPVTKSFNRGEC
heavy 1: not shown
light 2: B1 light 2 with T72A, G75A
heavy 2: B1 heavy 2 with E105D
B4: iPS:327711 (bispecific antibody, human IgG1, kappa, lambda, N297G)
light 1: not shown
heavy 1: not shown
light 2: B1 light 2 with T72A
heavy 2: B1 heavy 2 with E105D
B5: iPS:327710 (bispecific antibody, human IgG1, kappa, lambda, N297G)
light 1: B2 light 1 with P100E
heavy 1: not shown
light 2: B1 light 2 with T72A, G103K
heavy 2: B1 heavy 2 with G44E, E105D, K370E
B6: iPS:327717 (bispecific antibody, human IgG1, kappa, lambda, N297G)
light 1: not shown
heavy 1: not shown
light 2: B1 light 2 with T72A, G75A
heavy 2: B1 heavy 2 with E105D, K370E
B7: iPS:327702 (bispecific antibody, human IgG1, kappa, lambda, N297G)
light 1: B2 light 1
heavy 1: not shown
light 2: B1 light 2
heavy 2: B1 heavy 2
B8: iPS:327712 (bispecific antibody, human IgG1, kappa, lambda, N297G)
light 1: not shown
heavy 1: not shown
light 2: B1 light 2 with T72A
heavy 2: B1 heavy 2 with E105D
B9: iPS:327701 (bispecific antibody, human IgG1, kappa, lambda, N297G)
light 1: B3 light 1
heavy 1: not shown
light 2: B1 light 2
heavy 2: B1 heavy 2
B10: iPS:327730 (bispecific antibody, human IgG1, kappa, lambda, N297G)
light 1: B2 light 1
heavy 1: not shown
light 2: B1 light 2 with T72A, G75A
heavy 2: B1 heavy 2 with E105D
B11: iPS:327713 (bispecific antibody, human IgG1, kappa, lambda, N297G)
light 1: B3 light 1
heavy 1: not shown
light 2: B1 light 2 with T72A
heavy 2: B1 heavy 2 with E105D
B12: iPS:327704 (bispecific antibody, human IgG1, kappa, lambda, N297G)
light 1: not shown
heavy 1: not shown
light 2: B1 light 2 with T72A
heavy 2: B1 heavy 2 with E105D, K370E
B13: iPS:327718 (bispecific antibody, human IgG1, kappa, lambda, N297G)
light 1: not shown
heavy 1: not shown
light 2: B1 light 2 with T72A, G75A
heavy 2: B1 heavy 2 with E105D, K370E
B14: iPS:327703 (bispecific antibody, human IgG1, kappa, lambda, N297G)
light 1: not shown
heavy 1: not shown
light 2: B1 light 2 with T72A
heavy 2: B1 heavy 2 with E105D, K370E
B15: iPS:326661 (bispecific antibody, human IgG2, kappa)
light 1: not shown
heavy 1: QVQLQQSGPGLVKPSQTLSLTCAISGDSVSSNSATWNWIRQSPSRGLEWLGRTYYRSKWSNHYAVSVKSRITINPDTSKSQFSLQLNSVTPEDTAVYYCARGTWKQLWFLDHWGQGTLVTVSSASTKGPSVFPLAPCSRSTSESTAALGCLVKDYFPEPVTVSWNSGALTSGVHTFPAVLQSSGLYSLKSVVTVPSSNFGTQTYTCNVDHKPSNTKVDKTVERKCCVECPPCPAPPVAGPSVFLFPPKPKDTLMISRTPEVTCVVVDVSHEDPEVQFNWYVDGVEVHNAKTKPREEQFNSTFRVVSVLTVVHQDWLNGKEYKCKVSNKGLPAPIEKTISKTKGQPREPQVYTLPPSREEMTKNQVSLTCLVDGFYPSDIAVEWESNGQPENNYDTTPPMLDSDGSFFLYSDLTVDKSRWQQGNVFSCSVMHEALHNHYTQKSLSLSPGK
light 2: EIVLTQSPGTLSLSPGERATLSCRASQSVSSGYLTWYQQKPGQAPRLLIYGASSRATGIPDRFSGSGSGTDFTLTISRLEPEDFAVYYCQQYGNSLSRFGQGTKLEIKRTVAAPSVFIFPPSDEQLKSGTASVVCLLNNFYPREAKVQWKVDNALQSGNSQESVTEQDSKDSTYSLKSTLTLSKADYEKHKVYACEVTHQGLSSPVTKSFNRGEC
heavy 2: QVQLVESGGGVVQPGRSLRLSCAASGFTFSSYGMHWVRQAPGKGLEWVAVIWYDGSNKYYADSVKGRFIISRDKSKNTLYLQMNSLRAEDTAVYYCARAGGIAAAGLYYYYGMDVWGQGTTVTVSSASTKGPSVFPLAPCSRSTSESTAALGCLVKDYFPEPVTVSWNSGALTSGVHTFPAVLQSSGLYSLESVVTVPSSNFGTQTYTCNVDHKPSNTKVDKTVERKCCVECPPCPAPPVAGPSVFLFPPKPKDTLMISRTPEVTCVVVDVSHEDPEVQFNWYVDGVEVHNAKTKPREEQFNSTFRVVSVLTVVHQDWLNGKEYKCKVSNKGLPAPIEKTISKTKGQPREPQVYTLPPSRKKMTKNQVSLTCLVKGFYPSDIAVEWESNGQPENNYKTTPPMLKSDGSFFLYSKLTVDKSRWQQGNVFSCSVMHEALHNHYTQKSLSLSPGK

Target: human CGRP receptor (human, UniProt Q16602 23-461; O60894 27-148)
Sequence (Q16602 23-461 limits assumed, chain 1 of 2): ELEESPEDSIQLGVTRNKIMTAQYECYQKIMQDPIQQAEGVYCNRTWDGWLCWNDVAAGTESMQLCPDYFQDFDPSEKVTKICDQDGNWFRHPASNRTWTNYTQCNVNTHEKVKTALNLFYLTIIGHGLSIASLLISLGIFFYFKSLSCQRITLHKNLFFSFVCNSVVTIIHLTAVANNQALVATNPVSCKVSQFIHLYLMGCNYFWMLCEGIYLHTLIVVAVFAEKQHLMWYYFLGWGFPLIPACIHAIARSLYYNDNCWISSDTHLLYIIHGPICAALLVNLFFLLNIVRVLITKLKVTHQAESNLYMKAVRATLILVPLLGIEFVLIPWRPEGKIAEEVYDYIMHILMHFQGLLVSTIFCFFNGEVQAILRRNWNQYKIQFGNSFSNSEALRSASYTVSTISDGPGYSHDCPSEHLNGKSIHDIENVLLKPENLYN
Sequence (O60894 27-148 limits assumed, chain 2 of 2): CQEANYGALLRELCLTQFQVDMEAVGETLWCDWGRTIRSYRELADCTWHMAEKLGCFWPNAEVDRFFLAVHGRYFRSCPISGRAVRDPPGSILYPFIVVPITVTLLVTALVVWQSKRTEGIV
Assay: cell-based or functional assay

% inhibition of human CGRPR	Binder
77%	B1
94%	B2
84%	B3
87%	B4
82%	B5
92%	B6
79%	B7
89%	B8
73%	B9
87%	B10
89%	B11
82%	B12
78%	B13
83%	B14
77%	B15

Target: T1, human PAC1 receptor
Assay: cell-based or functional assay

% inhibition of human PAC1	Binder
72%	B1
104%	B2
85%	B3
97%	B4
61%	B5
94%	B6
86%	B7
81%	B8
41%	B9
101%	B10
85%	B11
71%	B12
70%	B13
87%	B14
72%	B15
